Test results taken from patent publication US20210139548A1 (published 2021).
*1 amine or outer side, *2 acyl side, *3 side chain or, on linkers, in order; H or OH if unused. Side-chain parts run from the residue outwards. The star is where a group is joined. C18 diacid = O=C(O)CCCCCCCCCCCCCCCCC(=O)*; γGlu = O=C(O)[C@H](CCC(=O)[*:2])N[*:1]; Isovaleryl = CC(C)CC(=O)*; AEEA = NCCOCCOCC(=O)O

T1: human neuropeptide Y2 receptor (human, UniProt P49146 1-381)
T1 construct: whole, on cells; also called hNPY2 receptor; hNPY2-R
T1 sequence (looked up): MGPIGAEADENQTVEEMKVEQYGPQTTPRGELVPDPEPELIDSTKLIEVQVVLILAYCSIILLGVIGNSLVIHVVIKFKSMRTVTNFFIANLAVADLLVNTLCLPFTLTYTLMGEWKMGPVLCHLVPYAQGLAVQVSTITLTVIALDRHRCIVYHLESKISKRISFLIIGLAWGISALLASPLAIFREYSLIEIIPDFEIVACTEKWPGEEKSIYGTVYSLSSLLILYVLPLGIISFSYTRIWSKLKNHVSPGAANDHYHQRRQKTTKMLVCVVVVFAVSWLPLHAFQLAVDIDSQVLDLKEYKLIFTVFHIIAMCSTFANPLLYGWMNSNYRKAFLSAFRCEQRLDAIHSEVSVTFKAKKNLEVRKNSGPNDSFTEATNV


Target: T1, human neuropeptide Y2 receptor
Experiment: radioligand competition (125I-PYY(1-36)), hNPY2R membranes
Summary of the method: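 Commercial human Y2 receptor membranes (0.5 μg protein/well) were incubated with peptide for 2 h at room temperature in 50 mM HEPES, 5 mM MgCl₂, 1 mM CaCl₂, pH 7.4, with 0.2% ovalbumin. Bound radioligand was separated on PEI-soaked GF/C filters and counted by scintillation, and IC₅₀ came from nonlinear sigmoidal regression.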

Row | Binder | Ki [nM]
1 | Isovaleryl-APEK([AEEA-AEEA-γGlu-C18 diacid])AEEDASPEELQQYYVSLRHYYNWLTRQRY-NH2 (SMILES CC(C)CC(=O)N[C@@H](C)C(=O)N1CCC[C@H]1C(=O)N[C@@H](CCC(=O)O)C(=O)N[C@@H](CCCCNC(=O)COCCOCCNC(=O)COCCOCCNC(=O)CC[C@H](NC(=O)CCCCCCCCCCCCCCCCC(=O)O)C(=O)O)C(=O)N[C@@H](C)C(=O)N[C@@H](CCC(=O)O)C(=O)N[C@@H](CCC(=O)O)C(=O)N[C@@H](CC(=O)O)C(=O)N[C@@H](C)C(=O)N[C@@H](CO)C(=O)N1CCC[C@H]1C(=O)N[C@@H](CCC(=O)O)C(=O)N[C@@H](CCC(=O)O)C(=O)N[C@@H](CC(C)C)C(=O)N[C@@H](CCC(N)=O)C(=O)N[C@@H](CCC(N)=O)C(=O)N[C@@H](Cc1ccc(O)cc1)C(=O)N[C@@H](Cc1ccc(O)cc1)C(=O)N[C@H](C(=O)N[C@@H](CO)C(=O)N[C@@H](CC(C)C)C(=O)N[C@@H](CCCNC(=N)N)C(=O)N[C@@H](Cc1c[nH]cn1)C(=O)N[C@@H](Cc1ccc(O)cc1)C(=O)N[C@@H](Cc1ccc(O)cc1)C(=O)N[C@@H](CC(N)=O)C(=O)N[C@@H](Cc1c[nH]c2ccccc12)C(=O)N[C@@H](CC(C)C)C(=O)N[C@H](C(=O)N[C@@H](CCCNC(=N)N)C(=O)N[C@@H](CCC(N)=O)C(=O)N[C@@H](CCCNC(=N)N)C(=O)N[C@@H](Cc1ccc(O)cc1)C(N)=O)[C@@H](C)O)C(C)C) [Compound 144] | 8.92
2 | Isovaleryl-APEK([AEEA-AEEA-γGlu-C18 diacid])PEEEASPEELQRYYVSTRHYYNWLTRQRY-NH2 (SMILES CC(C)CC(=O)N[C@@H](C)C(=O)N1CCC[C@H]1C(=O)N[C@@H](CCC(=O)O)C(=O)N[C@@H](CCCCNC(=O)COCCOCCNC(=O)COCCOCCNC(=O)CC[C@H](NC(=O)CCCCCCCCCCCCCCCCC(=O)O)C(=O)O)C(=O)N1CCC[C@H]1C(=O)N[C@@H](CCC(=O)O)C(=O)N[C@@H](CCC(=O)O)C(=O)N[C@@H](CCC(=O)O)C(=O)N[C@@H](C)C(=O)N[C@@H](CO)C(=O)N1CCC[C@H]1C(=O)N[C@@H](CCC(=O)O)C(=O)N[C@@H](CCC(=O)O)C(=O)N[C@@H](CC(C)C)C(=O)N[C@@H](CCC(N)=O)C(=O)N[C@@H](CCCNC(=N)N)C(=O)N[C@@H](Cc1ccc(O)cc1)C(=O)N[C@@H](Cc1ccc(O)cc1)C(=O)N[C@H](C(=O)N[C@@H](CO)C(=O)N[C@H](C(=O)N[C@@H](CCCNC(=N)N)C(=O)N[C@@H](Cc1c[nH]cn1)C(=O)N[C@@H](Cc1ccc(O)cc1)C(=O)N[C@@H](Cc1ccc(O)cc1)C(=O)N[C@@H](CC(N)=O)C(=O)N[C@@H](Cc1c[nH]c2ccccc12)C(=O)N[C@@H](CC(C)C)C(=O)N[C@H](C(=O)N[C@@H](CCCNC(=N)N)C(=O)N[C@@H](CCC(N)=O)C(=O)N[C@@H](CCCNC(=N)N)C(=O)N[C@@H](Cc1ccc(O)cc1)C(N)=O)[C@@H](C)O)[C@@H](C)O)C(C)C) [Compound 146] | 5.05

Now those with a lower Ki, led by results:

Row | Ki [nM] | Binder
3 | 1.17 | Isovaleryl-APEK([AEEA-AEEA-γGlu-C18 diacid])PPEEASPEELQRYYVSLRHYYNWLTRQRY-NH2 (SMILES CC(C)CC(=O)N[C@@H](C)C(=O)N1CCC[C@H]1C(=O)N[C@@H](CCC(=O)O)C(=O)N[C@@H](CCCCNC(=O)COCCOCCNC(=O)COCCOCCNC(=O)CC[C@H](NC(=O)CCCCCCCCCCCCCCCCC(=O)O)C(=O)O)C(=O)N1CCC[C@H]1C(=O)N1CCC[C@H]1C(=O)N[C@@H](CCC(=O)O)C(=O)N[C@@H](CCC(=O)O)C(=O)N[C@@H](C)C(=O)N[C@@H](CO)C(=O)N1CCC[C@H]1C(=O)N[C@@H](CCC(=O)O)C(=O)N[C@@H](CCC(=O)O)C(=O)N[C@@H](CC(C)C)C(=O)N[C@@H](CCC(N)=O)C(=O)N[C@@H](CCCNC(=N)N)C(=O)N[C@@H](Cc1ccc(O)cc1)C(=O)N[C@@H](Cc1ccc(O)cc1)C(=O)N[C@H](C(=O)N[C@@H](CO)C(=O)N[C@@H](CC(C)C)C(=O)N[C@@H](CCCNC(=N)N)C(=O)N[C@@H](Cc1c[nH]cn1)C(=O)N[C@@H](Cc1ccc(O)cc1)C(=O)N[C@@H](Cc1ccc(O)cc1)C(=O)N[C@@H](CC(N)=O)C(=O)N[C@@H](Cc1c[nH]c2ccccc12)C(=O)N[C@@H](CC(C)C)C(=O)N[C@H](C(=O)N[C@@H](CCCNC(=N)N)C(=O)N[C@@H](CCC(N)=O)C(=O)N[C@@H](CCCNC(=N)N)C(=O)N[C@@H](Cc1ccc(O)cc1)C(N)=O)[C@@H](C)O)C(C)C) [Compound 142]
4 | 1.55 | Isovaleryl-APEK([AEEA-AEEA-γGlu-C18 diacid])PEEDSSPEEIQRYYVSLRHYYNWLTRQRY-NH2 (SMILES CC[C@H](C)[C@H](NC(=O)[C@H](CCC(=O)O)NC(=O)[C@H](CCC(=O)O)NC(=O)[C@@H]1CCCN1C(=O)[C@H](CO)NC(=O)[C@H](CO)NC(=O)[C@H](CC(=O)O)NC(=O)[C@H](CCC(=O)O)NC(=O)[C@H](CCC(=O)O)NC(=O)[C@@H]1CCCN1C(=O)[C@H](CCCCNC(=O)COCCOCCNC(=O)COCCOCCNC(=O)CC[C@H](NC(=O)CCCCCCCCCCCCCCCCC(=O)O)C(=O)O)NC(=O)[C@H](CCC(=O)O)NC(=O)[C@@H]1CCCN1C(=O)[C@H](C)NC(=O)CC(C)C)C(=O)N[C@@H](CCC(N)=O)C(=O)N[C@@H](CCCNC(=N)N)C(=O)N[C@@H](Cc1ccc(O)cc1)C(=O)N[C@@H](Cc1ccc(O)cc1)C(=O)N[C@H](C(=O)N[C@@H](CO)C(=O)N[C@@H](CC(C)C)C(=O)N[C@@H](CCCNC(=N)N)C(=O)N[C@@H](Cc1c[nH]cn1)C(=O)N[C@@H](Cc1ccc(O)cc1)C(=O)N[C@@H](Cc1ccc(O)cc1)C(=O)N[C@@H](CC(N)=O)C(=O)N[C@@H](Cc1c[nH]c2ccccc12)C(=O)N[C@@H](CC(C)C)C(=O)N[C@H](C(=O)N[C@@H](CCCNC(=N)N)C(=O)N[C@@H](CCC(N)=O)C(=O)N[C@@H](CCCNC(=N)N)C(=O)N[C@@H](Cc1ccc(O)cc1)C(N)=O)[C@@H](C)O)C(C)C) [Compound 145]
5 | 1.19 | Isovaleryl-APEK([AEEA-AEEA-γGlu-C18 diacid])PEEDASPEETQKYYVSLRHYYNWLTRQRY-NH2 (SMILES CC(C)CC(=O)N[C@@H](C)C(=O)N1CCC[C@H]1C(=O)N[C@@H](CCC(=O)O)C(=O)N[C@@H](CCCCNC(=O)COCCOCCNC(=O)COCCOCCNC(=O)CC[C@H](NC(=O)CCCCCCCCCCCCCCCCC(=O)O)C(=O)O)C(=O)N1CCC[C@H]1C(=O)N[C@@H](CCC(=O)O)C(=O)N[C@@H](CCC(=O)O)C(=O)N[C@@H](CC(=O)O)C(=O)N[C@@H](C)C(=O)N[C@@H](CO)C(=O)N1CCC[C@H]1C(=O)N[C@@H](CCC(=O)O)C(=O)N[C@@H](CCC(=O)O)C(=O)N[C@H](C(=O)N[C@@H](CCC(N)=O)C(=O)N[C@@H](CCCCN)C(=O)N[C@@H](Cc1ccc(O)cc1)C(=O)N[C@@H](Cc1ccc(O)cc1)C(=O)N[C@H](C(=O)N[C@@H](CO)C(=O)N[C@@H](CC(C)C)C(=O)N[C@@H](CCCNC(=N)N)C(=O)N[C@@H](Cc1c[nH]cn1)C(=O)N[C@@H](Cc1ccc(O)cc1)C(=O)N[C@@H](Cc1ccc(O)cc1)C(=O)N[C@@H](CC(N)=O)C(=O)N[C@@H](Cc1c[nH]c2ccccc12)C(=O)N[C@@H](CC(C)C)C(=O)N[C@H](C(=O)N[C@@H](CCCNC(=N)N)C(=O)N[C@@H](CCC(N)=O)C(=O)N[C@@H](CCCNC(=N)N)C(=O)N[C@@H](Cc1ccc(O)cc1)C(N)=O)[C@@H](C)O)C(C)C)[C@@H](C)O) [Compound 147]
